# Patent publication US20030200558A1 (MONSANTO, published 2003)
# Changes are numbered by the printed parent chain.
# B1: mature form (plus additional methionine encoded by start codon) of the β-conglycinin β subunit encoded by pMON39329 (other)
# chain: MLKVREDENNPFYLRSSNSFQTLFENQNGRIRLLQRFNKRSPQLENLRDYRIVQFQSKPNTILLPHHADADFLLFVLSGRAILTLVNNDDRDSYNLHPGDAQRIPAGTTYYLVNPHDHQNLKIIKLAIPVNKPGRYDDFFLSSTQAQQSYLQGFSHNILETSFHSEFEEINRVLLGEEEEQRQQEGVIVELSKEQIRQLSRRAKSSSRKTISSEDEPFNLRSRNPIYSNNFGKFFEITPEKTPQLRDLDIFLSSVDINEGALLLPHFNSKAIVILVINEGDANIELVGIKEQQQKQKQEEEPLEVQRYRAELSEDDVFVIPAAYPFVVNATSNLNFLAFGINAENNQRNFLAGEKDNVVRQIERQVQELAFPGSAQDVERLLKKQRESYFVDAQPQQKEEGSKGRKGPFPSILGALY
# notes: expressed in E. coli; also called native form
# B2: epitope (FLAG)-tagged form of the β-conglycinin β subunit encoded by pMON39328 (other)
# chain: MDYKDDDDKLKVREDENNPFYLRSSNSFQTLFENQNGRIRLLQRFNKRSPQLENLRDYRIVQFQSKPNTILLPHHADADFLLFVLSGRAILTLVNNDDRDSYNLHPGDAQRIPAGTTYYLVNPHDHQNLKIIKLAIPVNKPGRYDDFFLSSTQAQQSYLQGFSHNILETSFHSEFEEINRVLLGEEEEQRQQEGVIVELSKEQIRQLSRRAKSSSRKTISSEDEPFNLRSRNPIYSNNFGKFFEITPEKTPQLRDLDIFLSSVDINEGALLLPHFNSKAIVILVINEGDANIELVGIKEQQQKQKQEEEPLEVQRYRAELSEDDVFVIPAAYPFVVNATSNLNFLAFGINAENNQRNFLAGEKDNVVRQIERQVQELAFPGSAQDVERLLKKQRESYFVDAQPQQKEEGSKGRKGPFPSILGALY
# notes: Expressed in E. coli. pMON39335 encodes the same protein (silent change TTA to CTT at Leu24); also called pMON39335
# B3: β-conglycinin β subunit mutant 39328-59 (other)
# chain: B2 chain with Y21W, Y58W, Y102W, Y119W, P123W, Y144W, Y158W, Y316W, Y397W
# B4: β-conglycinin β subunit mutant 39328-36 (other)
# chain: B2 chain with Y58W, Y102W, P123W, Y144W, Y158W, P225W, Y235W, P251W, Y316W
# B5: β-conglycinin β subunit mutant 39328-65 (other)
# chain: B2 chain with Y21W, Y58W, Y102W, P123W, Y144W, Y158W, Y316W, Y332W, Y397W
# B6: β-conglycinin β subunit mutant 39328-27 (other)
# chain: B2 chain with Y21W, Y58W, H74W, Y102W, Y118W, Y119W
# B7: β-conglycinin β subunit mutant 39328-63 (other)
# chain: B2 chain with Y21W, Y58W, Y102W, P123W, Y144W, Y158W, P251W, Y316W, Y397W
# Target: the molecule itself
# Experiment: sucrose gradient sedimentation, anti-FLAG western (self-assembly)
# Protocol: (§1) To determine if the recombinant forms of β subunit expressed in E. coli from pMON39328 and pMON39329 could self-assemble to form trimers, aliquots of the soluble protein fraction from E. coli lysates are layered onto 12 ml of a 5-25% sucrose density gradient and centrifuged at 36,000 rpm for 17.5 hours at 20° C. (Sorvall TH-641 rotor; Sorvall Ultra Pro 80 ultracentrifuge). Following centrifugation, the gradient is divided into fractions using a Labconco Autodensi-Flow instrument (Labconco, Kansas City, Mo.), and each fraction is analyzed by western blot analysis using Anti-FLAG M2 antibody (Stratagene Corporation, LaJolla, Calif.) to determine which fractions contained β-conglycinin β subunit. 7S and […] soy protein fractions, as well as ovalbumin (45 kD) and aldolase (158 kD), are run as size markers on separate gradients.
row,Protein,binding result
1,B1,binds
2,B2,binds

# Target: the molecule itself
# Experiment: as above
# Remark: another data set of the same source
# Protocol: as §1
# This example sets forth confirmation of the protein structure from the expression of modified β-conglycinin β subunit clones. The assembly properties of the following modified forms of the β subunit (indicated by mutant ID number), each containing a different tryptophan substitution, are determined as described in Example 6. Western blot analysis of sucrose gradient fractions is carried out as in Example 6 using anti-FLAG antibody.
row,Protein,binding result
1,B3,no binding
2,B4,no binding
3,B5,no binding
4,B6,no binding
5,B7,no binding
